Experimental data: patent US20030143656
Substitutions are numbered along the chain they refer to. Numbers in names are those of the source.

Tests used:
[1] = target: 412E-p70 S6K-T2 (His-tagged, insect cells), P23443
D978A-PIFtide = target: T1, D978A-PIFtide
T1 chain: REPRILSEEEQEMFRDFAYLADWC

[2] = target: GST-S6K1-T2[F411A], P23443
[3] = target: T2, GST-SGK1 (lacking the N-terminal 60 amino acids), O00141
T2 chain: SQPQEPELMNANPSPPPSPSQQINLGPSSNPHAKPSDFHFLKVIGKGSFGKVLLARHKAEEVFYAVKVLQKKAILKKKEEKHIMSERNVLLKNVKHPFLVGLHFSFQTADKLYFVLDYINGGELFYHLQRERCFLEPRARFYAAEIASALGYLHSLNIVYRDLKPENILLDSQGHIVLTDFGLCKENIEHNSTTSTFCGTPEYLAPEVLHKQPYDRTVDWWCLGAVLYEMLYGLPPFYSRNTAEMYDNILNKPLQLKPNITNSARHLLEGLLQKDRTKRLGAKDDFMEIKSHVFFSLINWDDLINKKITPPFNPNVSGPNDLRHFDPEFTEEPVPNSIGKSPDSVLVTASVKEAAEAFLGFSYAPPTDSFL

[4] = target: GST-SGK1[T422D] (lacking the N-terminal 60 amino acids), O00141
GST-?PH-PKBα, P31749 = target: T3, GST-?PH-PKBα, P31749
T3 chain: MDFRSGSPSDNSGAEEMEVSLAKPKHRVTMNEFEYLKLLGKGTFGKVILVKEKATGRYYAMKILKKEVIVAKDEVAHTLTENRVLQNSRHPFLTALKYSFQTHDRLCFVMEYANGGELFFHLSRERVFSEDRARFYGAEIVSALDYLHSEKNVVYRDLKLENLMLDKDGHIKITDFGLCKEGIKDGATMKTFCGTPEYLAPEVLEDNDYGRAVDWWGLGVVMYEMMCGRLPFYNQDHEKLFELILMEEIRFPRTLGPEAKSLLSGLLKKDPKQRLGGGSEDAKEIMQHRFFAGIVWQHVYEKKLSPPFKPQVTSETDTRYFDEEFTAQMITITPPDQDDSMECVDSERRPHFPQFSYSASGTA

[5] = target: T4, GST-?PH-PKBα[F472A], P31749
T4 chain: T3 chain with F355A

[6] = target: T5, GST-?PH-PKBα[S473D], P31749
T5 chain: T3 chain with S356D

PIFtide = target: T6, PIFtide
T6 chain: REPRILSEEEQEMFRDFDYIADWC

SGK1[F421A], O00141 = target: T7, SGK1[F421A], O00141
T7 chain: T2 chain with F361A

[7] = target: p70 S6K-T2 (His-tagged, insect cells), P23443
T308tide = target: T8, T308tide
T8 chain: KTFCGTPEYLAPEVRR

Sequence of GST-FL-PKB 473D, P31749 (P31749 other isoform, or with tags, fused parts or gaps): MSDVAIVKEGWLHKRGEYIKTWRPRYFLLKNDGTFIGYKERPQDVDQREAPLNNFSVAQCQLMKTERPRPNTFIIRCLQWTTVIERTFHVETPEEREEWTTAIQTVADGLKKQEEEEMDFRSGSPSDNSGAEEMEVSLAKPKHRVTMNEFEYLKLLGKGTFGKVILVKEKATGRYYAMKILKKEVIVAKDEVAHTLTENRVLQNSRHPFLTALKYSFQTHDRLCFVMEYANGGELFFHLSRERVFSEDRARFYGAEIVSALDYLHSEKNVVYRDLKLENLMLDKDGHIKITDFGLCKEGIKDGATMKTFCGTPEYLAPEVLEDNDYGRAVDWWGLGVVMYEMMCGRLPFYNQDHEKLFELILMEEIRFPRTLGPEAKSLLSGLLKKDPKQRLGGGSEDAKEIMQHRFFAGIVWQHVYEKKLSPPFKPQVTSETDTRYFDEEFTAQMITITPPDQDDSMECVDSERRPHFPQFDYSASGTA
Sequence of 412E-p70 S6K-T2 (His-tagged, insect cells), P23443 (P23443 whole entry, looked up): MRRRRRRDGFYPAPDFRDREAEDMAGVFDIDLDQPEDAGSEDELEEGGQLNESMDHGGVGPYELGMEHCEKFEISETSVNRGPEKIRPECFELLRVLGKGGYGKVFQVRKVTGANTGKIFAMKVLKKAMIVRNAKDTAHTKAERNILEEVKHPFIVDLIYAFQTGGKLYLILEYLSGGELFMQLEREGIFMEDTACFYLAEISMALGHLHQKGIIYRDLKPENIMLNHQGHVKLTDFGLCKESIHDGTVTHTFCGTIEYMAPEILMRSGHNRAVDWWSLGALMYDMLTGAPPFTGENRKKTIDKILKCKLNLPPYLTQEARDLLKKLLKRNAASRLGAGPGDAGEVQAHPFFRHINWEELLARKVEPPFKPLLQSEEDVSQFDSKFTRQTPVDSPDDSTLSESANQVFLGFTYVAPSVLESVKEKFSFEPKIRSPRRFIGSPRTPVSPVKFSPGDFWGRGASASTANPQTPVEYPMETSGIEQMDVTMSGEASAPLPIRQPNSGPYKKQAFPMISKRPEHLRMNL
Sequence of p70 S6K-T2 (His-tagged, insect cells), P23443 (P23443 whole entry, looked up): as above
Sequence of GST-PKBα[F472A], P31749 (P31749 whole entry F472A): as the sequence (P31749 other isoform, or with tags, fused parts or gaps) above, with F472A, D473S counted along it
Sequence of PDKtide (chain, as listed by the source): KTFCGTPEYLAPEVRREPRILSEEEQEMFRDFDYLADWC
Sequence of GST-S6K1-T2[F411A], P23443 (P23443 1-421 F411A): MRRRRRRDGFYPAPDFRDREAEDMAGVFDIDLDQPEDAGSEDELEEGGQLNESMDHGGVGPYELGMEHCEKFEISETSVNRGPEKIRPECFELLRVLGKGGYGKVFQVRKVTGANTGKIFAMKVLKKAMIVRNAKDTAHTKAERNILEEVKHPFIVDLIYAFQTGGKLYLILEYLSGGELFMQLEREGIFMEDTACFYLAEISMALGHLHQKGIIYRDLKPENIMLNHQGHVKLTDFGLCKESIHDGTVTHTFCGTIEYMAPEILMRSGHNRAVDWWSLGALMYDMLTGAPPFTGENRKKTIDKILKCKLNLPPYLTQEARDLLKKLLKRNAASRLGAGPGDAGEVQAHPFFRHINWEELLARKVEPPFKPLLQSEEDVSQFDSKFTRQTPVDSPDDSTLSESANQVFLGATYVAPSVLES

B1: GST-PDK1 (wild type) (protein)
chain: MARTTSQLYDAVPIQSSVVLCSCPSPSMVRTQTESSTPPGIPGGSRQGPAMDGTAAEPRPGAGSLQHAQPPPQPRKKRPEDFKFGKILGEGSFSTVVLARELATSREYAIKILEKRHIIKENKVPYVTRERDVMSRLDHPFFVKLYFTFQDDEKLYFGLSYAKNGELLKYIRKIGSFDETCTRFYTAEIVSALEYLHGKGIIHRDLKPENILLNEDMHIQITDFGTAKVLSPESKQARANSFVGTAQYVSPELLTEKSACKSSDLWALGCIIYQLVAGLPPFRAGNEYLIFQKIIKLEYDFPEKFFPKARDLVEKLLVLDATKRLGCEEMEGYGPLKAHPFFESVTWENLHQQTPPKLTAYLPAMSEDDEDCYGNYDNLLSQFGCMQVSSSSSSHSLSASDTGLPQRSGSNIEQYIHDLDSNSFELDLQFSEDEKRLLLEKQAGGNPWHQFVENNLILKMGPVDKRKGLFARRRQLLLTEGPHLYYVDPVNKVLKGEIPWSQELRPEAKNFKTFFVHTPNRTYYLMDPSGNAHKWCRKIQEVWRQRYQSHPDAAVQ
Question: Which relative phosphorylation of the substrate by PDK1-wt, +PIFtide (relative, PKB[S473D]=100) [1] does the source give for B1 here?
Answer: 7.4

Question: And the relative phosphorylation of the substrate by PDK1-wt, no PIFtide (relative, PKB[S473D]=100) [1]?
Answer: 54

Question: And the “concentration needed to obtain 50% activation of PDK1 (T308tide as substrate)” value (D978A-PIFtide)?
Answer: 1.1 µM for D978A-PIFtide

Question: And the relative phosphorylation of the substrate by PDK1-wt, +PIFtide (relative, PKB[S473D]=100) (GST-FL-PKB 473D, P31749)?
Answer: 85.4

Question: And the relative phosphorylation of the substrate by PDK1-wt, no PIFtide (relative, PKB[S473D]=100) (GST-FL-PKB 473D, P31749)?
Answer: 100

Question: And the relative phosphorylation of the substrate by PDK1-wt, +PIFtide (relative, PKB[S473D]=100) (GST-FL-PKB, P31749)?
Answer: 19.3

Question: And the relative phosphorylation of the substrate by PDK1-wt, no PIFtide (relative, PKB[S473D]=100) (GST-FL-PKB, P31749)?
Answer: 28

Question: What about the “rate of phosphorylation by PDK1 compared to the wild type enzyme” value (“rate … compared to the wild type enzyme” for short) (GST-PKBα[F472A], P31749) of the same protein?
Answer: PKB[F472A] was phosphorylated at a similar rate to the wild type PKB

Question: What about the “rate … compared to the wild type enzyme” value [2] of the same protein?
Answer: markedly reduced

Question: What about the relative phosphorylation of the substrate by PDK1-wt, +PIFtide (relative, PKB[S473D]=100) [3] of the same protein?
Answer: 3.8

Question: What about the relative phosphorylation of the substrate by PDK1-wt, no PIFtide (relative, PKB[S473D]=100) [3] of the same protein?
Answer: 8

Question: And the relative phosphorylation of the substrate by PDK1-wt, +PIFtide (relative, PKB[S473D]=100) [4]?
Answer: 9.6

Question: And the relative phosphorylation of the substrate by PDK1-wt, no PIFtide (relative, PKB[S473D]=100) [4]?
Answer: 71

Question: What about the relative phosphorylation of the substrate by PDK1-wt, +PIFtide (relative, PKB[S473D]=100) (GST-?PH-PKBα, P31749) of the same protein?
Answer: 0.25

Question: What about the relative phosphorylation of the substrate by PDK1-wt, no PIFtide (relative, PKB[S473D]=100) (GST-?PH-PKBα, P31749) of the same protein?
Answer: 0.4

Question: What about the “rate … compared to the wild type enzyme” value [5] of the same protein?
Answer: markedly reduced

Question: What about the relative phosphorylation of the substrate by PDK1-wt, +PIFtide (relative, PKB[S473D]=100) [6] of the same protein?
Answer: 0.2

Question: What about the relative phosphorylation of the substrate by PDK1-wt, no PIFtide (relative, PKB[S473D]=100) [6] of the same protein?
Answer: 0.9

Question: What about the “concentration needed to obtain 50% activation of PDK1 (T308tide as substrate)” value (PIFtide) of the same protein?
Answer: 0.14 µM for wt-PIFtide

Question: What about the “phosphorylation of p70 S6K at Thr412 by PDK1 (T412-P immunoblot)” value (PIFtide) of the same protein?
Answer: The 24 residue PIF peptide prevented PDK1 from phosphorylating the p70 S6K at Thr412

Question: What about the “rate … compared to the wild type enzyme” value (SGK1[F421A], O00141) of the same protein?
Answer: markedly reduced

Question: What about the relative phosphorylation of the substrate by PDK1-wt, +PIFtide (relative, PKB[S473D]=100) [7] of the same protein?
Answer: 0.58

Question: And the relative phosphorylation of the substrate by PDK1-wt, no PIFtide (relative, PKB[S473D]=100) [7]?
Answer: 10.4

B2: His-PDK1 (protein)
chain: DGTAAEPRPGAGSLQHAQPPPQPRKKRPEDFKFGKILGEGSFSTVVLARELATSREYAIKILEKRHIIKENKVPYVTRERDVMSRLDHPFFVKLYFTFQDDEKLYFGLSYAKNGELLKYIRKIGSFDETCTRFYTAEIVSALEYLHGKGIIHRDLKPENILLNEDMHIQITDFGTAKVLSPESKQARANSFVGTAQYVSPELLTEKSACKSSDLWALGCIIYQLVAGLPPFRAGNEYLIFQKIIKLEYDFPEKFFPKARDLVEKLLVLDATKRLGCEEMEGYGPLKAHPFFESVTWENLHQQTPPKLTAYLPAMSEDDEDCYGNYDNLLSQFGCMQVSSSSSSHSLSASDTGLPQRSGSNIEQYIHDLDSNSFELDLQFSEDEKRLLLEKQAGGNPWHQFVENNLILKMGPVDKRKGLFARRRQLLLTEGPHLYYVDPVNKVLKGEIPWSQELRPEAKNFKTFFVHTPNRTYYLMDPSGNAHKWCRKIQEVWRQRYQSHPDAAVQ
Question: Which results are given for B2?
Answer: rate of phosphorylation at 100 µM, against T308tide (PDKtide): phosphorylated at a rate over 100-fold greater than that using T308tide; Km of PDK1 for the peptide substrate (T308tide): the Km was very high (>10 mM)

B3: GST-PDK1 L155E (protein)
chain: B1 chain with L155E
Question: With B3 as the protein, how does the relative phosphorylation of the substrate by PDK1-L155E, +PIFtide (relative, PKB[S473D]=100) [1] read?
Answer: 0.108

Question: And the relative phosphorylation of the substrate by PDK1-L155E, no PIFtide (relative, PKB[S473D]=100) [1]?
Answer: 0.5

Question: What about the relative phosphorylation of the substrate by PDK1-L155E, +PIFtide (relative, PKB[S473D]=100) (GST-FL-PKB 473D, P31749) of the same protein?
Answer: 162

Question: What about the relative phosphorylation of the substrate by PDK1-L155E, no PIFtide (relative, PKB[S473D]=100) (GST-FL-PKB 473D, P31749) of the same protein?
Answer: 178

Question: What about the relative phosphorylation of the substrate by PDK1-L155E, +PIFtide (relative, PKB[S473D]=100) (GST-FL-PKB, P31749) of the same protein?
Answer: 35

Question: And the relative phosphorylation of the substrate by PDK1-L155E, no PIFtide (relative, PKB[S473D]=100) (GST-FL-PKB, P31749)?
Answer: 35

Question: And the relative phosphorylation of the substrate by PDK1-L155E, +PIFtide (relative, PKB[S473D]=100) [3]?
Answer: 2.4

Question: And the relative phosphorylation of the substrate by PDK1-L155E, no PIFtide (relative, PKB[S473D]=100) [3]?
Answer: 3.3

Question: And the relative phosphorylation of the substrate by PDK1-L155E, +PIFtide (relative, PKB[S473D]=100) [4]?
Answer: 3.4

Question: What about the relative phosphorylation of the substrate by PDK1-L155E, no PIFtide (relative, PKB[S473D]=100) [4] of the same protein?
Answer: 3.5

Question: And the relative phosphorylation of the substrate by PDK1-L155E, +PIFtide (relative, PKB[S473D]=100) (GST-?PH-PKBα, P31749)?
Answer: 0.25

Question: What about the relative phosphorylation of the substrate by PDK1-L155E, no PIFtide (relative, PKB[S473D]=100) (GST-?PH-PKBα, P31749) of the same protein?
Answer: 0.23

Question: What about the relative phosphorylation of the substrate by PDK1-L155E, +PIFtide (relative, PKB[S473D]=100) [6] of the same protein?
Answer: 0.15

Question: What about the relative phosphorylation of the substrate by PDK1-L155E, no PIFtide (relative, PKB[S473D]=100) [6] of the same protein?
Answer: 0.18

Question: What about the relative phosphorylation of the substrate by PDK1-L155E, +PIFtide (relative, PKB[S473D]=100) [7] of the same protein?
Answer: 0.27

Question: And the relative phosphorylation of the substrate by PDK1-L155E, no PIFtide (relative, PKB[S473D]=100) [7]?
Answer: 0.6
